# Data as given in patent US5985836A, “Alpha-1 proteinase inhibitor binding peptides” (Bayer Corporation, priority 1998, dated 1999).
# Ends that are not written are not given here.
# Columns and labels:
# Immunoglobulin G (IgG) = assay: Purification from Effluent II+III, IgG mass balance; format: binding, human; conditions: 1 ml Eff. II+III, 4° C.
# Procedure: Sequences 1-11 and 15 were assayed with Effluent II+III (Eff. II+III). Eff. II+III is a process intermediate in the Cohn plasma fractionation process. The feed stream contains 20% (by volume) ethanol, 20-25 mg/ml hSA and approximately 1 mg/ml AlPI. The stream also contains other proteins including anti-thrombin III (AT3), immunoglobin G (IgG), immunoglobin A (IgA), apolipoprotein alpha-1 (Apo A-1), transferrin (Trf), haptoglobin (Hpt), and alpha-1 acid glycoprotein (AAG) at concentrations ranging from 0.1-1 mg/ml.
# The columns were assayed using the same technique as the hSA+AlPI experiments, allowing for a 10 minute residence time followed by a constant flow rate of 865 μl/min with step elutions of 1M NaCl, 3M NaCl, and 2% acetic acid. All experiments were conducted at 4° C. The mass balances for the injection of 1 ml Eff. […] The AlPI was enriched from 3% of the total protein in the feed to upwards of 50% in the acid eluate.
# [1] = molecular target: T1, apolipoprotein alpha-1 (Apo A-1) (Homo sapiens, UniProt P02647); assay: Purification from Effluent II+III, Apo A-1 mass balance; format: binding; conditions: 1 ml Eff. II+III, 4° C.
# T1 construct: Eff; II+III is a process intermediate in the Cohn plasma fractionation process; tissue Bayer Corporation (Clayton, N.C.); host or cells: plasma fraction: Cohn Effluent II+III
# Summary of the method: (§1)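 Peptide-ligand columns were loaded with 1 ml Cohn Effluent II+III (20% v/v ethanol, 20-25 mg/ml hSA, ~1 mg/ml A1PI, other plasma proteins at 0.1-1 mg/ml) using a 10 min residence time at 4° C. Step elutions at 865 μl/min used 1M NaCl, 3M NaCl, then 2% acetic acid, and protein mass balances were tracked across fractions.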
# A1PI [2] = molecular target: T2, A1PI (Homo sapiens, UniProt P01009); assay: A1PI purification from 5 mg hSA + 1 mg A1PI on peptide column, A1PI mass balance; format: binding; conditions: for Mass AlPI Eluted in Acid Eluate: nephelometry; for Mass Protein per Eluate Fraction, 1M NaCl / Mass Protein per Eluate Fraction, 2% Ac. Acid / Mass Protein per Eluate Fraction, 3M NaCl / Mass Protein per Eluate Fraction, Flow / Percent Eluted by Fraction, 1M NaCl / Percent Eluted by Fraction, 2% Ac. Acid / Percent Eluted by Fraction, 3M NaCl / Percent Eluted by Fraction, Flow / Mass Protein per Eluate Fraction, 2% Acetic Acid / Percent Eluted by Fraction, 2% Acetic Acid: A1PI, 5 mg hSA + 1 mg A1PI; for Mass Protein per Eluate Fraction, 1M NaCl / Mass Protein per Eluate Fraction, 2% Ac. Acid / Mass Protein per Eluate Fraction, 3M NaCl / Mass Protein per Eluate Fraction, Flow / Mass Protein per Eluate Fraction, 2% Acetic Acid: * Below detection limit
# T2 construct: Human plasma is currently the only approved source of therapeutic AlPI
# Summary of the method: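 Peptides on A-Totda-Toyopearl resin (0.1 mmole/g) in 0.4×5 cm columns; 5 mg hSA + 1 mg A1PI loaded at 4 °C or 20 °C with 10 min residence (17 μl/min). Steps of 1M and 3M NaCl, then 2% acetic acid; fractions quantified by immunonephelometry for mass balance.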
# A1PI [3] = molecular target: T2, A1PI; assay: Purification of A1PI from Effluent II+III on peptide column, A1PI mass balance; format: binding; conditions: A1PI, 1 ml Eff. II+III, 4° C.
# Summary of the method: as §1
# A1PI [4] = molecular target: T2, A1PI; assay: Capture and elution of active A1PI with 2M urea buffer (elastase inhibition activity assay and immunonephelometry); format: binding; conditions: 4° C.; for Mass A1PI in Urea Eluate (mg), Activity / Mass A1PI in Urea Eluate (mg), Nephelometry: 1 mg A1PI, eluted with 2M urea, pH 6; for Mass A1PI in Urea Eluate (mg), Activity: elastase inhibition activity assay; for Mass A1PI in Urea Eluate (mg), Nephelometry: immunonephelometry; for Specific Activity: mass of A1PI by activity assay relative to immunonephelometry, urea eluate
# Immunoglobulin A (IgA) = assay: Purification from Effluent II+III, IgA mass balance; format: binding, human; conditions: 1 ml Eff. II+III, 4° C.
# Summary of the method: as §1
# A1PI [5] = molecular target: T2, A1PI; assay: A1PI binding on peptide-resin column, injection of 1 mg A1PI in equilibration buffer; conditions: for Percent AlPI Eluted by Fraction, 1M NaCl / Percent AlPI Eluted by Fraction, 2% Acetic Acid / Percent AlPI Eluted by Fraction, Flowthrough: sequence order, 1 mg AlPI
# Summary of the method: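 Peptides synthesized on A-Totda-Toyopearl chelate resin (0.1 mmole/g) packed in 0.4×5 cm columns; 1 mg A1PI injected in equilibration buffer at 4 °C or 20 °C, 865 or 523 μl/min. Flowthrough, 1M/3M NaCl washes and 2% acetic acid eluate quantified by A280 or immunonephelometry as percent of total eluted.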
# [6] = * as in Tables 4, 5 (below detection limit)
# [7] = 4° C., relative to total eluted
# [8] = 20° C., relative to total eluted
# [9] = 1 mg A1PI in equilibration buffer, 4° C.
# [10] = 1 mg A1PI in equilibration buffer, 20° C.
# [11] = Table 19, 4° C., relative to total loaded
# [12] = Table 19, 20° C., relative to total loaded
# T2 sequence (P01009 25-418): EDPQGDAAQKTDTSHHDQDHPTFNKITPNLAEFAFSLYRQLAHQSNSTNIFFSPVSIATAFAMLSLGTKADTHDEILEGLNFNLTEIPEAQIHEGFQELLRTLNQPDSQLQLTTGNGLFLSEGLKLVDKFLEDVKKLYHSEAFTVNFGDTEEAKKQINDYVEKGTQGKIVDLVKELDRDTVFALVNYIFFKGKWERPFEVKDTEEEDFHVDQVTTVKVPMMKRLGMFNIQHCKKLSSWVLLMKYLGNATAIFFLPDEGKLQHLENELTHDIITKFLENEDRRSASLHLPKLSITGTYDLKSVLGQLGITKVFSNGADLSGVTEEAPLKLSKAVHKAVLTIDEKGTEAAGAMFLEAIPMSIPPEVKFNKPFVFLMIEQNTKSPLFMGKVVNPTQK
# T1 sequence (P02647 19-267): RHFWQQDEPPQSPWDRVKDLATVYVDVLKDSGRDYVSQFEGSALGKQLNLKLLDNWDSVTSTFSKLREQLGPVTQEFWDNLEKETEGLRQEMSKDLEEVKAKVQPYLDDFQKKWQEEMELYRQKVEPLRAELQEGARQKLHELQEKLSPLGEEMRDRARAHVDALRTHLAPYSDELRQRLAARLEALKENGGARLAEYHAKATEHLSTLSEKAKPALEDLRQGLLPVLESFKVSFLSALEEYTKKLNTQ
substance,measurement,setting,value
PYWIVR,"Percent Eluted by Fraction, 1M NaCl",Immunoglobulin G (IgG),10%
same,"Percent Eluted by Fraction, 2% Acetic Acid",Immunoglobulin G (IgG),0%
same,"Percent Eluted by Fraction, 3M NaCl",Immunoglobulin G (IgG),0%
same,"Percent Eluted by Fraction, Flow",Immunoglobulin G (IgG),90%
same,"Mass Protein per Eluate Fraction, 1M NaCl",Immunoglobulin G (IgG); [6],0.03 mg
same,"Mass Protein per Eluate Fraction, Flow",Immunoglobulin G (IgG); [6],0.30 mg
same,"Percent Eluted by Fraction, 1M NaCl",[1],60%
same,"Percent Eluted by Fraction, 2% Acetic Acid",[1],0%
same,"Percent Eluted by Fraction, 3M NaCl",[1],0%
same,"Percent Eluted by Fraction, Flow",[1],40%
same,"Mass Protein per Eluate Fraction, 1M NaCl",[1]; [6],0.34 mg
same,"Mass Protein per Eluate Fraction, Flow",[1]; [6],0.22 mg
same,Mass AlPI Eluted in Acid Eluate,"A1PI [2]; 250 μg AlPI injected with 5 mg hSA, 20° C.",0.09 mg
same,Mass AlPI Eluted in Acid Eluate,"A1PI [2]; 500 μg AlPI injected with 5 mg hSA, 20° C.",0.21 mg
same,Mass AlPI Eluted in Acid Eluate,"A1PI [2]; 1000 μg AlPI injected with 5 mg hSA, 20° C.",0.30 mg
same,"Mass Protein per Eluate Fraction, 1M NaCl",A1PI [2]; 4° C.,0.31 mg
same,"Mass Protein per Eluate Fraction, 2% Ac. Acid",A1PI [2]; 4° C.,0.19 mg
same,"Mass Protein per Eluate Fraction, 3M NaCl",A1PI [2]; 4° C.,0.02 mg
same,"Mass Protein per Eluate Fraction, Flow",A1PI [2]; 4° C.,0.19 mg
same,"Percent Eluted by Fraction, 1M NaCl",A1PI [2]; [7],44%
same,"Percent Eluted by Fraction, 2% Ac. Acid",A1PI [2]; [7],27%
same,"Percent Eluted by Fraction, 3M NaCl",A1PI [2]; [7],3%
same,"Percent Eluted by Fraction, Flow",A1PI [2]; [7],27%
same,"Mass Protein per Eluate Fraction, 1M NaCl",A1PI [2]; 20° C.,0.32 mg
same,"Mass Protein per Eluate Fraction, 2% Ac. Acid",A1PI [2]; 20° C.,0.38 mg
same,"Mass Protein per Eluate Fraction, 3M NaCl",A1PI [2]; 20° C.,0.02 mg
same,"Mass Protein per Eluate Fraction, Flow",A1PI [2]; 20° C.,0.07 mg
same,"Percent Eluted by Fraction, 1M NaCl",A1PI [2]; [8],41%
same,"Percent Eluted by Fraction, 2% Ac. Acid",A1PI [2]; [8],48%
same,"Percent Eluted by Fraction, 3M NaCl",A1PI [2]; [8],2%
same,"Percent Eluted by Fraction, Flow",A1PI [2]; [8],9%
same,"Percent Eluted by Fraction, 1M NaCl",A1PI [3],16%
same,"Percent Eluted by Fraction, 2% Acetic Acid",A1PI [3],29%
same,"Percent Eluted by Fraction, 3M NaCl",A1PI [3],0%
same,"Percent Eluted by Fraction, Flow",A1PI [3],56%
same,"Mass Protein per Eluate Fraction, 1M NaCl",A1PI [3]; [6],0.15 mg
same,"Mass Protein per Eluate Fraction, 2% Acetic Acid",A1PI [3]; [6],0.28 mg
same,"Mass Protein per Eluate Fraction, Flow",A1PI [3]; [6],0.55 mg
same,"Mass A1PI in Urea Eluate (mg), Activity",A1PI [4],0.37 mg
same,"Mass A1PI in Urea Eluate (mg), Nephelometry",A1PI [4],0.49 mg
same,Specific Activity,A1PI [4],0.75 mg/mg
same,"Percent Eluted by Fraction, 1M NaCl",Immunoglobulin A (IgA),57%
same,"Percent Eluted by Fraction, 2% Acetic Acid",Immunoglobulin A (IgA),22%
same,"Percent Eluted by Fraction, 3M NaCl",Immunoglobulin A (IgA),0%
same,"Percent Eluted by Fraction, Flow",Immunoglobulin A (IgA),21%
same,"Mass Protein per Eluate Fraction, 1M NaCl",Immunoglobulin A (IgA); [6],0.22 mg
same,"Mass Protein per Eluate Fraction, 2% Acetic Acid",Immunoglobulin A (IgA); [6],0.08 mg
same,"Mass Protein per Eluate Fraction, Flow",Immunoglobulin A (IgA); [6],0.08 mg
same,"Percent A1PI Eluted by Fraction Based on Absorbance at 280 nm, 1M NaCl",A1PI [5]; [9],74%
same,"Percent A1PI Eluted by Fraction Based on Absorbance at 280 nm, 2% Acetic Acid",A1PI [5]; [9],26%
same,"Percent A1PI Eluted by Fraction Based on Absorbance at 280 nm, Flowthrough",A1PI [5]; [9],0%
same,"Percent A1PI Eluted by Fraction, 1M NaCl",A1PI [5]; [10],55%
same,"Percent A1PI Eluted by Fraction, 2% Acetic Acid",A1PI [5]; [10],45%
same,"Percent A1PI Eluted by Fraction, Flowthrough",A1PI [5]; [10],0%
RVLFIH: reversed sequence of VIFLVR with C-terminal His,"Mass Protein per Eluate Fraction, 1M NaCl","A1PI [2]; Table 19, 4° C.",0.14 mg
same,"Mass Protein per Eluate Fraction, 2% Acetic Acid","A1PI [2]; Table 19, 4° C.",0.43 mg
same,"Mass Protein per Eluate Fraction, Flow","A1PI [2]; Table 19, 4° C.",0.31 mg
same,"Percent Eluted by Fraction, 1M NaCl",A1PI [2]; [11],16%
same,"Percent Eluted by Fraction, 2% Acetic Acid",A1PI [2]; [11],49%
same,"Percent Eluted by Fraction, 3M NaCl",A1PI [2]; [11],0%
same,"Percent Eluted by Fraction, Flow",A1PI [2]; [11],35%
same,"Mass Protein per Eluate Fraction, 1M NaCl","A1PI [2]; Table 19, 20° C.",0.00 mg
same,"Mass Protein per Eluate Fraction, 2% Acetic Acid","A1PI [2]; Table 19, 20° C.",0.65 mg
same,"Mass Protein per Eluate Fraction, Flow","A1PI [2]; Table 19, 20° C.",0.09 mg
same,"Percent Eluted by Fraction, 1M NaCl",A1PI [2]; [12],0%
same,"Percent Eluted by Fraction, 2% Acetic Acid",A1PI [2]; [12],88%
same,"Percent Eluted by Fraction, 3M NaCl",A1PI [2]; [12],0%
same,"Percent Eluted by Fraction, Flow",A1PI [2]; [12],12%
same,"Mass A1PI in Urea Eluate (mg), Activity",A1PI [4],0.56 mg
same,"Mass A1PI in Urea Eluate (mg), Nephelometry",A1PI [4],0.71 mg
same,Specific Activity,A1PI [4],0.79 mg/mg
same,"Percent AlPI Eluted by Fraction, 1M NaCl",A1PI [5]; 4° C.,29%
same,"Percent AlPI Eluted by Fraction, 2% Acetic Acid",A1PI [5]; 4° C.,71%
same,"Percent AlPI Eluted by Fraction, Flowthrough",A1PI [5]; 4° C.,0%
same,"Percent AlPI Eluted by Fraction, 1M NaCl",A1PI [5]; 20° C.,3%
same,"Percent AlPI Eluted by Fraction, 2% Acetic Acid",A1PI [5]; 20° C.,97%
same,"Percent AlPI Eluted by Fraction, Flowthrough",A1PI [5]; 20° C.,0%
